From the supplement of paper PMC12042874
± gives the uncertainty stated by the source.

Assay: amyloid nucleation score (Sup35N fusion, yeast selection) (log enrichment); library NNK1; higher = more nucleation; inactive = no reads after selection
In short: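 DiMSum was used to calculate nucleation scores as log enrichment of output over input reads, centred on the mode score of non-aggregating sequences. Sequences with fewer than 100 input reads were not scored. Input and output came from Illumina sequencing of plasmid inserts in psi-negative yeast expressing peptides of 20 random codons fused to Sup35N, induced 24 hours with 100 μM copper sulfate and then grown 7 days at 30°C on medium lacking adenine and uracil.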

Substance	amyloid nucleation score
AHSANSKIVSFRMLDDYRPD	1.1 ± 0.39
AHSCDGPCRPHVTAVKALVL	0.089 ± 0.48
AIAIPDRCLFYATRFSCDSR	inactive
AICRLDVVWVT	0.135 ± 0.37
AICWPVILSTDLTQTYLAWT	-0.247 ± 0.3
AIHMEHCCFVNVQRILRFVV	4.68 ± 0.092
AILNRLLSLPSFPVPSSDSQ	0.466 ± 1.4
AIPLSDRR	1.48 ± 0.88
AIQCSTARNDVECKLFTYVL	0.086 ± 0.71
AIQYHNWGSEACLWHERESG	0.225 ± 0.26
AIRWYGMDDMPTRGYQWSPA	-0.128 ± 0.59
AISVGVFRVWC	3.53 ± 0.09
AIVTSGNRE	-0.015 ± 0.51
AKGYSYCKLI	-0.804 ± 0.3
AKVCLKSVTQFTTHLLMSRG	-0.009 ± 0.77
AKVYSGIPWWNFSTFLRGEV	-0.668 ± 1.4
AKWPARSPSLQLGNFWFDTT	0.161 ± 0.59
ALAVVVLFLCVSTPAYVAFE	0.923 ± 0.53
ALCLSRARSSG	-0.152 ± 0.68
ALKQPVYDGRGPRLGIGPRR	-0.124 ± 1
ALKWSTLLTLFLGYSHIVSM	1.46 ± 0.38
ALLIPINTLGDN	0.605 ± 0.7

Substance	amyloid nucleation score
ALMNGQMVTGALITEWYNWC	0.439 ± 0.97
ALPIMKLMACVCGQKGMTYA	-0.047 ± 0.69
ALPYVYRTLVNNLLIPSSGL	1.02 ± 0.67
ALSSWLLFGSTCQDSDCFKD	1.16 ± 0.76
ALTRS	-0.074 ± 0.49
AMFAMLNDRGRLGACYLVGK	1.55 ± 0.78
AMNFWRKILIFSELVYG	2.19 ± 0.5
AMQGACGFISGGFSVARVFV	0.296 ± 0.25
ANDKHLVLGWAQVVTQMDGR	0.731 ± 0.86
ANELFTVDKKSVGYIPTHTL	0.445 ± 0.56
ANIYGWDDPYFEQL	0.045 ± 0.75
ANMYY	-0.279 ± 1.1
ANSSF	-0.126 ± 0.54
ANSSLLEFHTYDWDLYSACL	-1.06 ± 1.5
ANVNSWTRPAIMIVLDWGVP	0.868 ± 0.58
APCRVMIYINMSMDYWTMES	5.19 ± 0.072
APKITGQTSNVGTRA	-0.028 ± 0.52
APPLSFEFL	3.06 ± 0.092
APVSIKCRFL	0.357 ± 0.55
AQFSTKPQQRIP	1.51 ± 0.56
AQLGDDYVRCHSTILSTRRL	0.167 ± 0.62
AQLWRARREFSFMTPMPSVS	-0.624 ± 1.5

Substance	amyloid nucleation score
AQLYVNWFCVWSFKE	6.2 ± 0.08
AQQLGMMGVGFMQRWNCRF	-1.74 ± 2.4
ARFRYVESSRQMSMNVVCLT	0.194 ± 0.38
ARGCD	-0.247 ± 1.1
ARIEFSGWFHPQLDLVFFVQ	1.97 ± 0.15
ARLDRSFR	0.451 ± 0.55
ARNIVSFDGTFYSFKQTYTP	2.12 ± 0.19
ARVSRSFVSRAANIHGNCRR	-0.029 ± 1.1
ARYSRRRKVMSLLVTGEMDA	-0.038 ± 0.44
ASCVGNINDCRPNIAFWVEE	0.984 ± 0.84
ASGVWRQ	-0.47 ± 0.65
ASHFELYRLRKGLMCSVVSI	inactive
ASIKTRTSFRVKVWYWVRNL	-0.598 ± 1.7
ASLLMLLVGRKICLAQVNKG	0.412 ± 0.51
ASLLSGQK	0.358 ± 1.1
ASRSSIPSG	-0.038 ± 1
ASSVHPRYFLNMTSSGVRKS	inactive
ASWFLVISTSLVYHSATADR	0.211 ± 0.39
ATRVPPFMEVLSPYH	inactive
AVCIMFRVNRFIRIVNTGGC	0.042 ± 0.58
AVCVEGQLANSGHRGTGNGN	0.257 ± 0.48
AVELI	-0.436 ± 0.34

Substance	amyloid nucleation score
AVEVLGPCRNLRVWSNLDLG	-0.072 ± 0.74
AVLWTHQYFYYYIGLAF	-0.267 ± 0.68
AVLYLSQFGLNRKRGYTA	0.582 ± 0.56
AVMPHCSCTRNQRFRLVSMH	0.707 ± 0.85
AVSLRWCTGINGADKSCAYQ	1.19 ± 0.43
AVVMTLIVYALGYT	1.27 ± 0.3
AVYDLCD	0.816 ± 0.74
AWAKFCCSD	-0.012 ± 1.1
AWDVLMHM	0.248 ± 0.49
AWFSISTRRIAIAWVILPCN	-0.398 ± 0.4
AWIRGQTVSCLYYAEGLELG	-0.448 ± 0.71
AWRDTDVASSVICG	0.932 ± 0.97
AWYWAMAIMRVSIKVWPLLL	-0.713 ± 0.7
AYFIYVMYG	-1.11 ± 1.1
AYGLNARIHTATGECLLGYA	-0.143 ± 0.24
AYINLTPHGPRVCRFNWLAS	-0.094 ± 0.7
AYINSSDSRSDMSRNWY	0.47 ± 1.1
AYKDGVTTLDLGCTGCFCYA	4.7 ± 0.072
AYMWLGAINICLWYWSLGR	3.02 ± 0.21
AYSLLMDYGFNHLFIRRFSR	-0.067 ± 0.42
